One substance from PMC11282748 can be followed below.

Usually stoichiometry N stands for the number of molecules, sites or subunits per partner or assembly.

In this assay the target is foldase protein PrsA of Staphylococcus aureus MW2 (recombinant, without signal peptide) (Staphylococcus aureus MW2). Description: SEC-MALS; Superdex 200 Increase 10/300; ~1 mg of protein loaded; 50 mM Tris-HCl, 150 mM NaCl, 2.5% (v/v) glycerol, pH 7.8; flow 0.4 ml/min. (In gel filtration, larger molecules generally elute earlier.)

For “foldase protein PrsA of Staphylococcus aureus MW2 (recombinant, without signal peptide) (natural protein)”, the stoichiometry N was 2.
